{"source": "patent US20260242440A1", "about": "“NOVEL MEANS TO MODULATE NMDA RECEPTOR-MEDIATED TOXICITY” (FUNDAMENTAL PHARMA GMBH, priority 2018, published 2026)", "molecules": {"B1": {"name": "SEQ ID NO:50: fragment of mouse TRPM4, amino acid residues 347-467 (protein, listed as Mus musculus)", "chain": "LQAQVERIMTRKELLTVYSSEDGSEEFETIVLRALVKACGSSEASAYLDELRLAVAWNRVDIAQSELFRGDIQWRSFHLEASLMDALLNDRPEFVRLLISHGLSLGHFLTPVRLAQLYSAVS"}, "B2": {"name": "SEQ ID NO:53: corresponds to SEQ ID NO:47 but comprises additionally a membrane-anchor (GPI) (protein)", "chain": "LQAQVERIMTRKELLTVYSSEDGSEEFETIVLRALVKACGSSEASAYLDELRLAVAWNRVDIAQSELFRGDIQWRSFHLEASLMDALLNDRPEFVRLLISHGLSLGHFLTPVRLAQLYSAVSPNSLIRNLLDQASHASSSKSPPVNGTVELRPPNVGQVLRTLLGETCAPRYPARNTRDSYLGQDHRENDSLLMDWANKQPSTDASFEQAPWSDLLIWALLLNRAQMAIYFWEKGSNSVASALGACLLLRVMARLESEAEEAARRKDLAATFESMSVDLFGECYHNSEERAARLLLRRCPLWGEATCLQLAMQADARAFFAQDGVQSLLTQKWWGEMDSTTPLENGGTSLSEKTVLLLVTPFLAAAWSLHP", "modifications": "GPI membrane anchor; Fusion protein of SEQ ID NO: and SEQ ID NO:57"}, "B3": {"name": "SEQ ID NO:47: fragment of mouse TRPM4, amino acid residues 347-689 (protein, listed as Mus musculus)", "chain": "LQAQVERIMTRKELLTVYSSEDGSEEFETIVLRALVKACGSSEASAYLDELRLAVAWNRVDIAQSELFRGDIQWRSFHLEASLMDALLNDRPEFVRLLISHGLSLGHFLTPVRLAQLYSAVSPNSLIRNLLDQASHASSSKSPPVNGTVELRPPNVGQVLRTLLGETCAPRYPARNTRDSYLGQDHRENDSLLMDWANKQPSTDASFEQAPWSDLLIWALLLNRAQMAIYFWEKGSNSVASALGACLLLRVMARLESEAEEAARRKDLAATFESMSVDLFGECYHNSEERAARLLLRRCPLWGEATCLQLAMQADARAFFAQDGVQSLLTQKWWGEMDSTTP"}, "B4": {"name": "SEQ ID NO:51: fragment of mouse TRPM4, amino acid residues 468-548 (protein, listed as Mus musculus)", "chain": "SLGHFLTPVRLAQLYSAVSPNSLIRNLLDQASHASSSKSPPVNGTVELRPPNVGQVLRTLLGETCAPRYPARNTRDSYLGQDHRENDSLLMDWANKQPST"}, "B5": {"name": "SEQ ID NO:49: fragment of mouse TRPM4, amino acid residues 1037-1213 (protein, listed as Mus musculus)", "chain": "AMFSYTFSKVHGNSDLYWKAQRYSLIREFHSRPALAPPLIIISHVRLLIKWLRRCRRCRRANLPASPVFEHFRVCLSKEAERKLLTWESVHKENFLLAQARDKRDSDSERLKRTSQKVDTALKQLGQIREYDRRLRGLEREVQHCSRVLTWMAEALSHSALLPPGAPPPPSPTGSKD"}, "B6": {"name": "SEQ ID NO:52: fragment of mouse TRPM4, amino acid residues 536-648 (protein, listed as Mus musculus)", "chain": "SYLGQDHRENDSLLMDWANKQPSTDASFEQAPWSDLLIWALLLNRAQMAIYFWEKGSNSVASALGACLLLRVMARLESEAEEAARRKDLAATFESMSVDLFGECYHNSEERAARLLLRRCPLWG"}, "B7": {"name": "SEQ ID NO:48: fragment of mouse TRPM4, amino acid residues 690-1036 (protein, listed as Mus musculus)", "chain": "IWALLLAFFCPPLIYTNLIVFRKSEEEPTQKDLDFDMDSSINGAGPPGTVEPSAKVALERRQRRRPGRALCCGKFSKRWSDFWGAPVTAFLGNVVSYLLFLLLFAHVLLVDFQPTKPSVSELLLYFWAFTLLCEELRQGLGGGWGSLASGGRGPDRAPLRHRLHLYLSDTWNQCDLLALTCFLLGVGCRLTPGLFDLGRTVLCLDFMIFTLRLLHIFTVNKQLGPKIVIVSKMMKDVFFFLFFLCVWLVAYGVATEGILRPQDRSLPSILRRVFYRPYLQIFGQIPQEEMDVALMIPGNCSMERGSWAHPEGPVAGSCVSQYANWLVVLLLIVFLLVANILLLNLLI"}}, "system": "primary mouse hippocampal neurons", "test": "NMDA induced cell death (excitotoxicity) in cultured primary neurons", "assay_type": "cell-based", "conditions": "for protection from NMDA induced excitotoxicity by knockdown of TRPM4: rAAV shRNA infection DIV3, NMDA 20 μM 10 min on DIV15-16, analysis 24 h later; for protection against NMDA induced cell death (neuroprotective effect): polypeptide expressed via rAAV infection on DIV3, NMDA 20 μM for 10 min, cell death assessed 24 h later", "procedure": "Primary mouse hippocampal and cortical neurons were prepared and maintained as known. Briefly, hippocampi or cerebral cortex from P0 C57Bl/6NCrl mice were dissociated and plated at a density of 1.2*105/cm^2 in Growth Medium (GM), consisting of Neurobasal A medium (Gibco™, 10888022), 2% serum free B27™ Supplement (Gibco™, 17504044), 1% rat serum (Biowest, S2150), 0.5 mM L-Glutamine (Sigma, G7513) and 0.5% P-S. Cytosine β-D-arabinofuranoside (AraC; Sigma, C1768; 2.8 μM) was added on DIV3 to prevent the proliferation of glial cells. From DIV8, half of the medium was replaced by GM without Rat serum every 48 h until being used for experiments. 24 h before experiments, GM was replaced with transfection medium (10 mM HEPES, pH 7.4, 114 mM NaCl, 26.1 mM NaHCO3, 5.3 mM KCl, 1 mM MgCl2, 2 mM CaCl2, 30 mM glucose, 1 mM glycine, 0.5 mM C3H3NaO3, and 0.001% phenol red and 10% of phosphate-free Eagle's minimum essential medium, supplemented with 7.5 µg/ml insulin, 7.5 µg/ml transferrin and 7.5 ng/ml sodium selenite (ITS Liquid Media Supplement, Sigma-Aldrich Cat #I3146)). Primary hippocampal neurons were used in live cell imaging, cell death experiments, while cortical neurons were used for mRNA and protein extraction analysis.\nAll viral particles were produced and purified as known in the art. All TRPM4 derived peptides (comprising SEQ ID NO:5, or any of SEQ ID NO:46 to SEQ ID NO:56) were cloned into rAAV backbone by PCR. shRNA against mouse TRPM4 were designed by BLOCK-iT™ RNAi Designer from Thermofisher to target: […] (SEQ ID NO:44, shTRPM4-1) and […] (SEQ ID NO:45, shTRPM4-2). Scramble shRNA (shSCR) has been tested and proven to have no known targets in mice. GPI anchor ([…], e.g. used in SEQ ID NO:53) sequences were synthesized by Eurofins Genomics (Ebersberg, Germany). All primers were synthesized and all plasmids were confirmed by sequencing by Eurofins Genomics.\nIn order to investigate the role of TRPM4 in NMDA receptor mediated excitotoxicity, the inventors used RNA interference strategies to knock down TRPM4. Cultured primary mouse hippocampus neurons were infected on day 3 in vitro (DIV3) with recombinant adeno-associated viruses (rAAVs) providing for expression of a scramble control (shSCR), shTRPM4-1 (SEQ ID NO:44) or shTRPM4-2 (SEQ ID NO:45). On DIV15-16, neurons were challenged with N-methyl-D-aspartate (NMDA, 20 μM) for 10 min. After NMDA wash out, neurons were kept in the culture medium for another 24 h before analysis. […] Evidently, TRPM4 is thus involved in the process of NMDA receptor mediated excitotoxicity.\nIn a next step, the inventors tried to identify regions in the mouse TRPM4 protein potentially involved in NMDA receptor mediated excitotoxicity. For this purpose, polypeptide fragments of mouse TRPM4 protein were generated and their impact on NMDA induced excitotoxicity analysed. To do so, primary neuron cultures were infected with respective rAAVs on DIV3, challenged with NMDA (20 μM) for 10 min on DIV17 and cell death assessed 24 hours later.\nThe sequence of SEQ ID NO:5 in TRPM4 is located in vivo just beneath the plasma membrane. […] To test this hypothesis, the inventors created a fusion protein comprising SEQ ID NO:5 and a GPI anchor, SEQ ID NO:57. The sequence of the fusion is given in SEQ ID NO:53. Neurons infected with rAAV and expressing SEQ ID NO:47 (control) or SEQ ID NO:53 were exposed to NMDA (20 μM) for 10 min on DIV15-16, with cell death assessed after 24 h.\nIn a next step, the inventors created a mutant of SEQ ID NO:5, in which two adjacent phenylalanine residues where substituted by tyrosine residues (SEQ ID NO: 54). […] TRPM5 is a protein related to but nonetheless distinct to TRPM4. The region in TRPM5 corresponding to SEQ ID NO:5, SEQ ID NO:55, shares only about 60% sequence identity with SEQ ID NO:5. Neurons were infected on DIV3 with rAAVs expressing SEQ ID NO: 5, SEQ ID NO: 54 or SEQ ID NO:55 and exposed to NMDA (20 μM) for 10 min on DIV17, with cell death assessed 24 h later. […]", "note": "“Also recorded” adds a separate entry of the source.", "data": [{"molecule": "shTRPM4-2: shRNA against mouse TRPM4 targeting gcatccagagagggttcattc, expressed from rAAV (guide GCAUCCAGAGAGGGUUCAUUC; listed as Mus musculus)", "values": [{"measurement": "protection from NMDA induced excitotoxicity by knockdown of TRPM4", "value": "significantly protected neurons"}]}, {"molecule": "shTRPM4-1: shRNA against mouse TRPM4 targeting ggacatcgcccaaagtgaact, expressed from rAAV (guide GGACAUCGCCCAAAGUGAACU; listed as Mus musculus)", "values": [{"measurement": "protection from NMDA induced excitotoxicity by knockdown of TRPM4", "value": "significantly protected neurons"}]}, {"molecule": "SEQ ID NO:46: fragment of mouse TRPM4, amino acid residues 1-346", "values": [{"measurement": "protection against NMDA induced cell death (neuroprotective effect)", "value": "only SEQ ID NO:47 is neuroprotective"}]}, {"molecule": "B1", "values": [{"measurement": "protection against NMDA induced cell death (neuroprotective effect)", "value": "only SEQ ID NO:5 is neuroprotective"}]}, {"molecule": "B2", "values": [{"measurement": "protection against NMDA induced cell death (neuroprotective effect)", "value": "can increase the ability to protect neurons from excitotoxicity; also recorded: increased the protective effects"}]}, {"molecule": "B3", "values": [{"measurement": "protection against NMDA induced cell death (neuroprotective effect)", "value": "contains a neuroprotective element"}]}, {"molecule": "B4", "values": [{"measurement": "protection against NMDA induced cell death (neuroprotective effect)", "value": "only SEQ ID NO:5 is neuroprotective"}]}, {"molecule": "B5", "values": [{"measurement": "protection against NMDA induced cell death (neuroprotective effect)", "value": "only SEQ ID NO:47 is neuroprotective"}]}, {"molecule": "B6", "values": [{"measurement": "protection against NMDA induced cell death (neuroprotective effect)", "value": "only SEQ ID NO:5 is neuroprotective"}]}, {"molecule": "B7", "values": [{"measurement": "protection against NMDA induced cell death (neuroprotective effect)", "value": "only SEQ ID NO:47 is neuroprotective"}]}]}
